# Experimental data published in patent publication US20140235701, “NGF APTAMER AND APPLICATION THEREOF” (RIBOMIC INC., published 2014).
# Where a chain is given by its changes, count along the chain named.
# T1: NT-3 (neurotrophin-3) (Homo sapiens, UniProt P20783 P20783:139-257)
# T1 sequence: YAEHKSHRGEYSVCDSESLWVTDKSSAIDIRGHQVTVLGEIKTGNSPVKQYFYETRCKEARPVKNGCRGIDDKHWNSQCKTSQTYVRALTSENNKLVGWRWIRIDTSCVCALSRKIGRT
# T2: NT-4 (neurotrophin-4) (Homo sapiens, UniProt P34130 P34130:81-210)
# T2 sequence: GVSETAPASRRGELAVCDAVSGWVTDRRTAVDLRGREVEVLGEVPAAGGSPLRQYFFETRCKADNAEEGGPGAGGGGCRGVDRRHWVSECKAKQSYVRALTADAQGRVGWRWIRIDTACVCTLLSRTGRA
# B1: SEQ ID NO: 50 (ssRNA)
# RNA: GGGAGAACUUCGACCAGAAGCUGGCACAUCCUGUUGCGUAGUUUCCGUCUACGUGACUGUUAUGUGCGCAUACAUGGAUCCUC
# modifications: 2'-F C/U, dA, 2'-OH G
# B2: SEQ ID NO: 60 (ssRNA)
# RNA: B1 RNA with C21U, U34C, G38A, U39G, A51C, C52G, A56G
# modifications: 2'-F C/U, dA, 2'-OH G
# B3: SEQ ID NO: 55 (ssRNA)
# RNA: B1 RNA with C21U, A51G, A56G
# modifications: 2'-F C/U, dA, 2'-OH G
# B4: SEQ ID NO: 54 (ssRNA)
# RNA: B1 RNA with C21U, U34A, A51G, A56U
# modifications: 2'-F C/U, dA, 2'-OH G
# B5: SEQ ID NO: 58 (ssRNA)
# RNA: B1 RNA with C21U, G24A, U34C, A51G, A56G, C57U
# modifications: 2'-F C/U, dA, 2'-OH G
# B6: SEQ ID NO: 56 (ssRNA)
# RNA: GGGAGAACUUCGACCAGAAGUUGCACAUCCUGCUGUGUAGUUUCCGUCUGCAUGGUUGUUAUGUGCGCAUACAUGGAUCCUC
# modifications: 2'-F C/U, dA, 2'-OH G
# Molecular target: T3, NGF (nerve growth factor) (Homo sapiens, UniProt P01138 P01138:122-241)
# T3 sequence (P01138 122-241, one chain of several): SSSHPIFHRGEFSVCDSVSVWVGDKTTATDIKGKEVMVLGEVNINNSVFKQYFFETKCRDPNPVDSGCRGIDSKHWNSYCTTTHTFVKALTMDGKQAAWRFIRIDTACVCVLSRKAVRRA
# Assay: SPR; more than 40N control
# Conditions: tags: R&D Systems; chain copies: 2
row,Binder,binding result
1,B1,binds
2,B2,binds
3,B3,binds
4,B4,binds
5,B5,binds
6,B6,binds

# Molecular target: T1, NT-3 (neurotrophin-3)
# Assay: SPR; scarcely bound
# Conditions: tags: R&D Systems; chain copies: 2
# Protocol: (§1) The binding activity of these shortened forms to NGF and NT-3 was measured by the surface plasmon resonance method. For the measurement method, BIAcore2000 manufactured by BIAcore was used and CM5 reactive with amino group was used as a sensorchip, as shown in Example 1. The protein was immobilized in the same manner as in Example 1 by using ethyl-3-carbodiimide hydrochloride and N-hydroxysuccinimide. […] After protein immobilization, blocking with ethanolamine-HCl was performed. The amount of immobilized NGF and NT-3 was 3,000-4,000 RU and 3,000-5,000 RU, respectively. The aptamer for an analyte was prepared to 0.15 μM-0.5 μM. The running buffer and regeneration solution were the same as those in Example 1. NT-3 was immobilized on FC2, and NGF on FC3, and the final sensorgram was obtained by subtracting the results of FC1.
# (§2) Then, the aptamers were subjected to shortening to 40 mer in the same manner as with consensus secondary structure 1. […] NT-4 was measured in the same manner as in NT-3.
# (§3) The shortened sequences were measured for the binding to NGF, NT-3, NT-4 by the surface plasmon resonance method. The measurement was performed in the same manner as in Example 13.
row,Binder,binding result
1,"GGGUCCUGUUGCUAAGUUUCCGUCUUAGUGACUGUUACCC (ssRNA, 2'-F C/U, dA, 2'-OH G) [SEQ ID NO: 105]",no binding
2,"GGGUCCUGAUGUCAAGUUUCCGUCUUGAUGUCUGUUACCC (ssRNA, 2'-F C/U, dA, 2'-OH G) [SEQ ID NO: 104]",no binding
3,"GGGUCCUGCUGCGUAGUUUCCGUCUGCGUGGUUGUUACCC (ssRNA, 2'-F C/U, dA, 2'-OH G) [SEQ ID NO: 103]",no binding
4,"GGGUCCUGCUGCGAAGUUUCCGUCUUCGUGGCUGUUACCC (ssRNA, 2'-F C/U, dA, 2'-OH G) [SEQ ID NO: 107]",no binding
5,"GGGUCCUGCUGCGUAGUUUCCUUCUGCGUGGCUGUUACCC (ssRNA, 2'-F C/U, dA, 2'-OH G) [SEQ ID NO: 109]",no binding
6,"GGGUCCUGCUGUGUAGUUUCCGUCUGCAUGGUUGUUACCC (ssRNA, 2'-F C/U, dA, 2'-OH G) [SEQ ID NO: 113]",no binding
7,"GGGUCCUGUUGCGUAGUUUCCGUCUGCGUGACUGUUACCC (ssRNA, 2'-F C/U, dA, 2'-OH G) [SEQ ID NO: 108]",no binding
8,"GGGUCCUGCUGCGUAGUUUCCGUCUGCGUAGCUGUUACCC (ssRNA, 2'-F C/U, dA, 2'-OH G) [SEQ ID NO: 106]",no binding
9,"GGGUCCUGCCGCGUAGUUUCCGUCUGCGUGGCUGUUACCC (ssRNA, 2'-F C/U, dA, 2'-OH G) [SEQ ID NO: 110]",no binding

# Molecular target: T2, NT-4 (neurotrophin-4)
# Assay: SPR; scarcely bound
# Conditions: tags: R&D Systems; chain copies: 2
# Protocol: as §1, §2, §3
row,Binder,binding result
1,"GGGUCCUGUUGCUAAGUUUCCGUCUUAGUGACUGUUACCC (ssRNA, 2'-F C/U, dA, 2'-OH G) [SEQ ID NO: 105]",no binding
2,"GGGUCCUGAUGUCAAGUUUCCGUCUUGAUGUCUGUUACCC (ssRNA, 2'-F C/U, dA, 2'-OH G) [SEQ ID NO: 104]",no binding
3,"GGGUCCUGCUGCGUAGUUUCCGUCUGCGUGGUUGUUACCC (ssRNA, 2'-F C/U, dA, 2'-OH G) [SEQ ID NO: 103]",no binding
4,"GGGUCCUGCUGCGAAGUUUCCGUCUUCGUGGCUGUUACCC (ssRNA, 2'-F C/U, dA, 2'-OH G) [SEQ ID NO: 107]",no binding
5,"GGGUCCUGCUGCGUAGUUUCCUUCUGCGUGGCUGUUACCC (ssRNA, 2'-F C/U, dA, 2'-OH G) [SEQ ID NO: 109]",no binding
6,"GGGUCCUGCUGUGUAGUUUCCGUCUGCAUGGUUGUUACCC (ssRNA, 2'-F C/U, dA, 2'-OH G) [SEQ ID NO: 113]",no binding
7,"GGGUCCUGUUGCGUAGUUUCCGUCUGCGUGACUGUUACCC (ssRNA, 2'-F C/U, dA, 2'-OH G) [SEQ ID NO: 108]",no binding
8,"GGGUCCUGCUGCGUAGUUUCCGUCUGCGUAGCUGUUACCC (ssRNA, 2'-F C/U, dA, 2'-OH G) [SEQ ID NO: 106]",no binding
9,"GGGUCCUGCCGCGUAGUUUCCGUCUGCGUGGCUGUUACCC (ssRNA, 2'-F C/U, dA, 2'-OH G) [SEQ ID NO: 110]",no binding

# Molecular target: T3, NGF (nerve growth factor)
# Assay: cell_activity; neurite; TF-1 >1
# Conditions: tags: R&D Systems; chain copies: 2
row,Binder,IC50 [nM]
1,"GGGUCCUGUGGAAGAGUUUCCGUCUCGUCCACUGUUACCC (ssRNA, 2'-F C/U, dA, 2'-OH G) [SEQ ID NO: 89]",0.959
2,"GGGUCCUGAGCAAGAGUUUCCGUCUCAUGCUCUGUUACCC (ssRNA, 2'-F C/U, dA, 2'-OH G) [SEQ ID NO: 102]",0.908
3,"GGGUCCUGUUGCUAAGUUUCCGUCUUAGUGACUGUUACCC (ssRNA, 2'-F C/U, dA, 2'-OH G) [SEQ ID NO: 105]",0.444
4,"GGGUCCUGACGUAUAGUUUCCGUCUGUAUGUCUGUUACCC (ssRNA, 2'-F C/U, dA, 2'-OH G) [SEQ ID NO: 101]",0.994
5,"GGGUCCUGAUGUCAAGUUUCCGUCUUGAUGUCUGUUACCC (ssRNA, 2'-F C/U, dA, 2'-OH G) [SEQ ID NO: 104]",0.682
6,"GGGUCCUGCUGCGUAGUUUCCGUCUGCGUGGUUGUUACCC (ssRNA, 2'-F C/U, dA, 2'-OH G) [SEQ ID NO: 103]",0.766
7,"GGGUCCUGCUGCGAAGUUUCCGUCUUCGUGGCUGUUACCC (ssRNA, 2'-F C/U, dA, 2'-OH G) [SEQ ID NO: 107]",0.967
8,"GGGUCCUGCUGCGUAGUUUCCUUCUGCGUGGCUGUUACCC (ssRNA, 2'-F C/U, dA, 2'-OH G) [SEQ ID NO: 109]",0.687
9,"GGGUCCUGCUGUGUAGUUUCCGUCUGCAUGGUUGUUACCC (ssRNA, 2'-F C/U, dA, 2'-OH G) [SEQ ID NO: 113]",0.96
10,"GGGUCCUGUUGCGUAGUUUCCGUCUGCGUGACUGUUACCC (ssRNA, 2'-F C/U, dA, 2'-OH G) [SEQ ID NO: 108]",0.403
11,"GGGUCCUGCUGCGUAGUUUCCGUCUGCGUAGCUGUUACCC (ssRNA, 2'-F C/U, dA, 2'-OH G) [SEQ ID NO: 106]",0.77
12,"GGGUCCUGCCGCGUAGUUUCCGUCUGCGUGGCUGUUACCC (ssRNA, 2'-F C/U, dA, 2'-OH G) [SEQ ID NO: 110]",0.999
